We go through two molecules from PMC5831843, “Creating a more robust 5-hydroxymethylfurfural oxidase by combining computational predictions with a novel effective library design” (Biotechnology for Biofuels, 2018).

One series relates to T1, O=Cc1ccc(CO)o1.
T1 construct: full-length, N-terminal His6x-SUMO fusion kept, recombinant from E. coli (pET SUMO / pBAD SUMO), FAD-containing
In words: purified protein. Conditions: 50 mM phosphate pH 8.0, 25 °C, O2 as electron acceptor. It counts as biochemical, Methylovorus sp. MP688.

Substrate in the series “purified protein”: O=Cc1ccc(CO)o1
In words: purified protein. Conditions: 50 mM phosphate pH 8.0, 25 °C, O2 as electron acceptor.

As for “HMFO (HMF oxidase) (Methylovorus sp. MP688; A419Y/A435E/G356H/H74Y/I73V/T414K/V367L)”, in the series on O=Cc1ccc(CO)o1, the Km was 630 µM, the kcat is 11.8 s⁻¹ and the kcat/Km stood at 18700 M⁻¹ s⁻¹.

B1: HMFO (HMF oxidase) (Methylovorus sp. MP688) (protein)
chain: MTDTIFDYVIVGGGTAGSVLANRLSARPENRVLLIEAGIDTPENNIPPEIHDGLRPWLPRLSGDKFFWPNLTIHRAAEHPGITREPQFYEQGRLLGGGSSVNMVVSNRGLPRDYDEWQALGADGWDWQGVLPYFIKTERDADYGDDPLHGNAGPIPIGRVDSRHWSDFTVAATQALEAAGLPNIHDQNARFDDGYFPPAFTLKGEERFSAARGYLDASVRVRPNLSLWTESRVLKLLTTGNAITGVSVLRGRETLQVQAREVILTAGALQSPAILLRTGIGPAADLHALGIPVLADRPGVGRNLWEHSSIGVVAPLTEQARADASTGKAGSRHQLGIRASSGVDPATPSDLFLHIGADPVSGLASAVFWVNKPSSTGWLKLKDADPFSYPDVDFNLLSDPRDLGRLKAGLRLITHYFAAPSLAKYGLALALSRFAAPQPGGPLLNDLLQDEAALERYLRTNVGGVWHASGTARIGRADDSQAVVDKAGRVYGVTGLRVADASIMPTVPTANTNLPTLMLAEKIADAILTQA
In the case of B1, in “purified protein”, the Km came out at 1520 µM, the kcat came to 13.7 s⁻¹ and the kcat/Km came out at 9030 M⁻¹ s⁻¹.
